A value given as a limit tells only on which side of the number the result lay.

These results are taken from US8105802B2, “Method of producing microbial transglutaminase” (Ajinomoto Co., Inc., priority 2003, dated 2012).

In one data set the test system is SVP70. As to the kind of experiment: Inhibitory activities of various compounds to SVP70 (cleavage of peptide GPSFRAPDS). The format is biochemical, Streptoverticillium mobaraense. The settings on record: analogously to (3)-vi); concentrations shown in FIG. 5. The protocol: (§1) The enzyme solution was added to 20 mM sodium phosphate buffer containing peptide GPSFRAPDS (Peptide Institute) (SEQ ID NO: 11) to yield 170 μl of total liquid volume, and it was reacted at 30° C. for 10 minutes, followed by heating at 95° C. for 5 minutes to terminate the reaction. 80 μl of this solution was analyzed by HPLC under the following conditions and its activity was calculated based on the decreased amount of the substrate.
(§2) To 20 mM sodium phosphate buffer (pH 7.0) containing various compounds at the concentrations shown in FIG. 5, the purified enzyme solution was added and left for 60 minutes at room temperature. Then Gly-Pro-Ser-Phe-Arg-Ala-Pro-Asp-Ser (SEQ ID NO: 11) was added as a substrate and reacted for 10 minute at 30° C. The relative activity by adding each compound was calculated based on the Gly-Pro-Ser-Phe-Arg-Ala-Pro-Asp-Ser (SEQ ID NO: 11) cleavage activity in the absence of compounds as 100%.
The inhibitory activities of various compounds to SVP70 were examined analogously to (3)-vi).

Another data set deals with SVP35. Nature of the data set: Inhibitory activities of various compounds to SVP35 (cleavage of peptide GPSFRAPDS). The format is biochemical, Streptoverticillium mobaraense. Conditions: concentrations shown in FIG. 5; 60 minutes at room temperature, then substrate 10 minute at 30° C., pH 7.0. The protocol: as §1, §2
For data set [1], the system named is Gly-Pro-Ser-Phe-Arg-Ala-Pro-Asp-Ser (SEQ ID NO: 11). Nature of the data set: Temperature stability of the protease. Conditions: 15 minutes; activity treated at 4° C. defined as 100%. The class given is physicochemical. The protocol: To 10 μl of the purified enzyme solution, 40 μl of 20 mM Tris-HCl buffer (pH 7.5) containing 5 mM calcium chloride and 0.01 mM zinc chloride was added to treat at 4° C. or at from 30° C. to 70° C. for 15 minutes, and then cooled by ice, added 250 μl of 20 mM sodium phosphate buffer (pH 7.0). To this enzyme solution, Gly-Pro-Ser-Phe-Arg-Ala-Pro-Asp-Ser (SEQ ID NO: 11) was added as a substrate and reacted at 30° C. for 5 minutes. When the activity treated at 4° C. was defined as 100%, the remaining activity at each temperature was calculated. […] (see FIG. 4).

In another data set the test system is insulin B and pro-MTG. Nature of the data set: Substrate specificity (cleavage points, HPLC and sequencing of fragments). The class given is biochemical. Conditions: 30° C., 2 hours, pH 7.5. As for the experimental part: 1 mg/ml of insulin B solution and pro-MTG solution prepared in 20 mM Tris-HCl buffer (pH 7.5) containing 5 mM calcium chloride and 0.01 mM zinc chloride was used as a substrate, and an enzyme solution was added to the solution to react at 30° C. for 2 hours, and then peptide fragments were separated by HPLC under the following conditions:
The amino acid sequences of the obtained peptide fragments were analyzed by PPSQ-10 (Shimadzu Co. Ltd.) to characterize the sequences of the cleavage points for SVP35.
The substrate specificity was examined similarly as described in (3)-i).

Data set [2] has as its system Gly-Pro-Ser-Phe-Arg-Ala-Pro-Asp-Ser (SEQ ID NO: 11). Nature of the data set: pH stability of the protease. The class given is physicochemical. As for the experimental part:
To 10 μl of SVP35 purified enzyme solution, 40 μl of each pH of 0.15 M GTA buffer from pH 3 to pH 10 was added, left at 4° C. overnight, followed by addition of 0.1 M sodium phosphate buffer (pH 7.0) to the liquid volume of 400 μl, and was adjusted to pH 7.0. To these enzyme solutions, Gly-Pro-Ser-Phe-Arg-Ala-Pro-Asp-Ser (SEQ ID NO: 11) was added as a substrate, and reacted at pH 7.0, at 30° C. for 10 minutes.
The pH stability was examined similarly to (3)-iii).

Data set [3] shares this test system. As to the kind of experiment: Optimum pH of the protease (peptide cleavage in GTA buffer pH 3 to pH 10). The format is biochemical. The protocol: as §1
In 0.15 M GTA buffer (buffered by 3,3-dimethyl glutaric acid, Tris (hydroxy methyl) amino methane, 2-amino-2-methyl-1,3-propanediol) from pH 3 to pH 10, SVP35 was allowed to act on Gly-Pro-Ser-Phe-Arg-Ala-Pro-Asp-Ser (SEQ ID NO: 11) as a substrate at 30° C. for 10 minutes.
The Optimum pH of SVP70 was examined similarly as (3)-ii).

For data set [4] the test system is unchanged. As to the kind of experiment: Optimum temperature of the protease. The class given is biochemical. As for the experimental part:
To the purified enzyme solution diluted with 20 mM Tris-HCl buffer (pH 7.5) containing 5 mM calcium chloride and 0.01 mM zinc chloride Gly-Pro-Ser-Phe-Arg-Ala-Pro-Asp-Ser (SEQ ID NO: 11) was added and reacted at pH 7.0, between 5° C. and 65° C. for 10 minutes. As a result, it was shown that the Optimum temperature of SVP35 was about 45° C. and it had high activity within the range of 40° C. to 50° C.
The Optimum temperature of SVP70 was examined similarly as (3)-iv). As a result, it was shown that the Optimum temperature of SVP70 was within the range from about 50° C. to 55° C., especially around 55° C. (see FIG. 3).

The subject of the next data set is pro-MTG. As to the kind of experiment: Conversion of pro-MTG into active MTG, substrate:enzyme 200:1 (SDS-PAGE, hydroxamate method). The format is biochemical, Streptoverticillium mobaraense. The settings on record: substrate:enzyme=200:1, 30° C. As for the experimental part: Using pro-MTG (1 mg/ml) expressed by Corynebacterium glutamicum as a purified substrate, the neutral protease (SVP35, SVP70) from Streptoverticillium mobaraense or the neutral metalloprotease SGMP II from Streptomyces griseus was mixed in the ratio of the substrate:the enzyme=200:1, the mixture was reacted at 30° C. After 0, 1, 2, 4, 7, 20 hours, the reaction mixture was sequentially picked up, and the aliquots of the reaction mixture were mixed with SDS-PAGE sample buffer and heated at 95° C. for 3 minutes, and then subjected to SDS-PAGE according to Laemmli's method (Nature, 227, 680-685 (1970)). […] In addition, SGMP II was purified from actinase (Kakenseiyaku Co. Ltd.) according to the reference method (J. Biocem., Vol. 110, p. 339-344, 1991).

[5] abbreviates: activity at pH 7.0 defined as 100%.

With `O=C(O)CN(CCN(CC(=O)O)CC(=O)O)CC(=O)O` [ethylene diamine tetraacetic acid], the “inhibition of SVP70 activity” value in the data set with SVP70 is on record as “strong inhibitory action”. Further, the “inhibition of SVP35 Gly-Pro-Ser-Phe-Arg-Ala-Pro-Asp-Ser cleavage activity” value in the data set with SVP35 was “strongly inhibited”.
As to `c1cnc2c(c1)ccc1cccnc12` [1,10-phenanthroline], the “inhibition of SVP70 activity” value with SVP70 is reported as “strong inhibitory action”. Besides, in the data set on SVP35, the “inhibition of SVP35 Gly-Pro-Ser-Phe-Arg-Ala-Pro-Asp-Ser cleavage activity” value is on record as “strongly inhibited”.
Regarding `NC(N)=O` [urea], in the data set with SVP70, the “inhibition of SVP70 activity” value is listed as “strong inhibitory action”.
With `O[C@H](CS)[C@H](O)CS` (racemic) [dithiothreitol], in the data set with SVP70, the “inhibition of SVP70 activity” value was “strong inhibitory action”.
Consider `CC(C)C[C@H](NP(=O)(O)O[C@@H]1O[C@@H](C)[C@H](O)[C@@H](O)[C@H]1O)C(=O)N[C@@H](Cc1c[nH]c2ccccc12)C(=O)O` [phosphoramidon], for which the “inhibition of SVP70 activity” value in the data set with SVP70 was “strong inhibitory action”. The “inhibition of SVP35 Gly-Pro-Ser-Phe-Arg-Ala-Pro-Asp-Ser cleavage activity” value with SVP35 is reported as “strongly inhibited”.

B1: Streptomyces subtilisin inhibitor (SSI): Streptomyces subtilisin inhibitor derived from actinomycetes (protein)
chain: DAPSALYAPSALVLTVGKGVSATTAAPERAVTLTCAPGPSGTHPAAGSACADLAAVGGDLNALTRGEDVMCPMVYDPVLLTVDGVWQGKRVSYERVFSNECEMNAHGSSVFAF
As for B1, the “inhibition of SVP70 activity” value in the data set on SVP70 is listed as “strong inhibitory action”. Moreover, the “inhibition of SVP35 Gly-Pro-Ser-Phe-Arg-Ala-Pro-Asp-Ser cleavage activity” value with SVP35 was “strongly inhibited”.

B2: SVP35: neutral metalloprotease of about 35,000 from the cell surface of Streptoverticillium mobaraense IFO13819 (SEQ ID NO: 6) (protein)
chain: VLRLTATPRTTALRAAALVASAAMVVVGVQTGSASASGDRDSGGLPLTLSASQRTAAIQEAQSGASATAAKIGLSGKEKLIARDVVKDADGTVHTRYERTYDGLPVLGGDLIVHEAKAGRSVTKANDATIALPSTDASLAPAAAKKSALSAAADQKTAKADGQAPRKVVWAAQGKPVLAYETVVTGVQKDGTPSELHVITDAASGKKLYQYEAIETGTGTSTYSGTVPLTTTKSGSQYQLNDGARGGHKTYDLNQGTSGTGSLFTNSTDTWGGGRQTAGVDAHYGAAVTWDFYKNVFGRNGIRNDGKAAYSRVHYGNSYVNAFWSDSCFCMTYGDGQNNKNPLTALDVAAHEMSHGVTAATAKLVYSGESGGLNEATSDIFGTAVEFYANNKTDVGDYLIGEKINIYGDGKPLRYMDKPSKDGKSKDSWYSGIGGVDVHYSSGPANHFFYLLSEGSGKKTINGVDYDSPTADGSKVTGIGRDKAQKIWYKALTTQFTSNTNYAKARTGTLNAAASLYGNNSAEYKAVAAAWSAINVK
modifications: Streptoverticillium mobaraense
For B2, in data set [1], the “remaining activity after treatment at 50° C.” value is reported as 80% and the “remaining activity after treatment at 60° C.” value is “lost its activity”. For the same molecule, in the data set with insulin B and pro-MTG, the “amino acids recognized at the cleavage site” value was “aromatic amino acids and hydrophobic amino acids with bulky side-chains positioned at P′ 1”; the “cleavage points (residue before which the substrate is cleaved)” value was “especially Phe, often Leu, sometimes Tyr, Trp, Ile, Val”. The “activity after treatment at pH 4-10” value in data set [2] (activity at pH 4.0 defined as 100%) was at least 90%. Besides, the “pH Stability (stable pH range)” value in data set [2] (left at 4° C. overnight at each pH, then reacted at pH 7.0, 30° C., 10 minutes) is reported as 4-10. In addition, the “Optimum pH” value in data set [3] (0.15 M GTA buffer pH 3 to pH 10, 30° C., 10 minutes) is reported as “around 7.0”. Besides, in data set [3] (setting [5]), the “activity at pH 6.0-8.0” value is reported as at least 70% and the “activity at pH 6.5-7.5” value is at least 80%. The “activity within 40° C. to 50° C. relative to that at 45° C.” value in data set [4] (pH 7.0, 10 minutes) was at least 80%. Also, the Optimum temperature entry in data set [4] (pH 7.0, between 5° C. and 65° C., 10 minutes) was “about 45 °C”. Also, the “transglutaminase (TG) activity of the picked up fraction, hydroxamate method” value in the data set on pro-MTG is “sufficient activity was confirmed”. Moreover, the “conversion of pro-MTG to the mature form (SDS-PAGE)” value in the data set on pro-MTG (0-20 hours) is listed as “converted to the mature forms”. In the data set with pro-MTG (up to 20 hours), the “reduction of produced MTG after long-term reaction” value is listed as “not reduced even after a long-term reaction”.
